Test results taken from the supplement of paper PMC10567573.

B1: WDR41 (parent)
chain: HVGELIIWDALDWTMQAYERNFWD

Variants of: B1
Test: protein stability index of a GFP-peptide fusion (GPS, HEK-293T) (PSI 1-6); higher = more stable
Conditions: c terminus: a fixed tail appended
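Note: lentivirally expressed fusions sorted by FACS into six bins by GFP to DsRed ratio, PSI derived from sequencing read proportions per bin multiplied by bin number.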

Variant	protein stability index
HVGELCIWDALDWTMQAYERNFWD [I6C]	1.47
HVGELKIWDALDWTMQAYERNFWD [I6K]	2.75
HVGELPIWDALDWTMQAYERNFWD [I6P]	2.41
HVGELQIWDALDWTMQAYERNFWD [I6Q]	1.62
HVGELRIWDALDWTMQAYERNFWD [I6R]	1.55
HVGELEIWDALDWTMQAYERNFWD [I6E]	1.36
HVGELGIWDALDWTMQAYERNFWD [I6G]	1.22
HVGELHIWDALDWTMQAYERNFWD [I6H]	1.59
HVGELWIWDALDWTMQAYERNFWD [I6W]	2.51
HVGELMIWDALDWTMQAYERNFWD [I6M]	2.35
HVGELTIWDALDWTMQAYERNFWD [I6T]	1.87
HVGELAIWDALDWTMQAYERNFWD [I6A]	1.75
HVGELDIWDALDWTMQAYERNFWD [I6D]	1.81
HVGELYIWDALDWTMQAYERNFWD [I6Y]	2.39
HVGELNIWDALDWTMQAYERNFWD [I6N]	2.17
HVGELSIWDALDWTMQAYERNFWD [I6S]	1.66
HTGELIIWDALDWTMQAYERNFWD [V2T]	1.92
HFGELIIWDALDWTMQAYERNFWD [V2F]	2.69
HAGELIIWDALDWTMQAYERNFWD [V2A]	1.58
HLGELIIWDALDWTMQAYERNFWD [V2L]	3.8
HSGELIIWDALDWTMQAYERNFWD [V2S]	2.47
HKGELIIWDALDWTMQAYERNFWD [V2K]	2.35
HIGELIIWDALDWTMQAYERNFWD [V2I]	2.08
HEGELIIWDALDWTMQAYERNFWD [V2E]	1.51

Variant	protein stability index
HPGELIIWDALDWTMQAYERNFWD [V2P]	1.54
HQGELIIWDALDWTMQAYERNFWD [V2Q]	2.35
HRGELIIWDALDWTMQAYERNFWD [V2R]	1.09
HGGELIIWDALDWTMQAYERNFWD [V2G]	1.65
HMGELIIWDALDWTMQAYERNFWD [V2M]	2.59
HHGELIIWDALDWTMQAYERNFWD [V2H]	2.44
HDGELIIWDALDWTMQAYERNFWD [V2D]	2.01
HCGELIIWDALDWTMQAYERNFWD [V2C]	1.97
HNGELIIWDALDWTMQAYERNFWD [V2N]	1.48
HVGELIIWDGLDWTMQAYERNFWD [A10G]	1.95
HVGELIIWDWLDWTMQAYERNFWD [A10W]	3.36
HVGELIIWDPLDWTMQAYERNFWD [A10P]	1.5
HVGELIIWDHLDWTMQAYERNFWD [A10H]	1.61
HVGELIIWDNLDWTMQAYERNFWD [A10N]	1.05
HVGELIIWDKLDWTMQAYERNFWD [A10K]	1.09
HVGELIIWDDLDWTMQAYERNFWD [A10D]	1.6
HVGELIIWDTLDWTMQAYERNFWD [A10T]	3.56
HVGELIIWDSLDWTMQAYERNFWD [A10S]	1.63
HVGELIIWMALDWTMQAYERNFWD [D9M]	3
HVGELIIWFALDWTMQAYERNFWD [D9F]	2.57
HVGELIIWRALDWTMQAYERNFWD [D9R]	2.69
HVGELIIWWALDWTMQAYERNFWD [D9W]	2.99
HVGELIIWCALDWTMQAYERNFWD [D9C]	2.29
HVGELIIWKALDWTMQAYERNFWD [D9K]	2.07

Variant	protein stability index
HVGELIIWPALDWTMQAYERNFWD [D9P]	3.61
HVGELIIWHALDWTMQAYERNFWD [D9H]	2.88
HVGELIIWTALDWTMQAYERNFWD [D9T]	3.42
HVGELIIWLALDWTMQAYERNFWD [D9L]	1.54
HVGELIIWDALDETMQAYERNFWD [W13E]	1.59
HVGELIIWDALDDTMQAYERNFWD [W13D]	2.07
HVGELIIWDALDQTMQAYERNFWD [W13Q]	2.21
HVGELIIWDALDHTMQAYERNFWD [W13H]	2.04
HVGELIIWDALDPTMQAYERNFWD [W13P]	1.52
HVGELIIWDALDSTMQAYERNFWD [W13S]	3.29
HVGELIIWDALDKTMQAYERNFWD [W13K]	2.37
HVGELIIWDALDCTMQAYERNFWD [W13C]	2.51
HVGELIIWDALDFTMQAYERNFWD [W13F]	4.66
HVGELIIWDALDYTMQAYERNFWD [W13Y]	2.84
HVGELIIWDALDTTMQAYERNFWD [W13T]	1.97
HVGELIIWDALDNTMQAYERNFWD [W13N]	1.69
HVGELIIWDALDATMQAYERNFWD [W13A]	1.98
SVGELIIWDALDWTMQAYERNFWD [H1S]	3.37
RVGELIIWDALDWTMQAYERNFWD [H1R]	1.58
YVGELIIWDALDWTMQAYERNFWD [H1Y]	2.18
TVGELIIWDALDWTMQAYERNFWD [H1T]	2.01
PVGELIIWDALDWTMQAYERNFWD [H1P]	1.49
IVGELIIWDALDWTMQAYERNFWD [H1I]	4.28
QVGELIIWDALDWTMQAYERNFWD [H1Q]	1.9

Variant	protein stability index
EVGELIIWDALDWTMQAYERNFWD [H1E]	1.27
NVGELIIWDALDWTMQAYERNFWD [H1N]	1.48
MVGELIIWDALDWTMQAYERNFWD [H1M]	3.52
KVGELIIWDALDWTMQAYERNFWD [H1K]	2.73
LVGELIIWDALDWTMQAYERNFWD [H1L]	2.13
HVGELIIWDALKWTMQAYERNFWD [D12K]	2.15
HVGELIIWDALPWTMQAYERNFWD [D12P]	2.1
HVGELIIWDALFWTMQAYERNFWD [D12F]	3.35
HVGELIIWDALVWTMQAYERNFWD [D12V]	2.81
HVGELIIWDALYWTMQAYERNFWD [D12Y]	1.11
HVSELIIWDALDWTMQAYERNFWD [G3S]	1.84
HVHELIIWDALDWTMQAYERNFWD [G3H]	2.49
HVTELIIWDALDWTMQAYERNFWD [G3T]	2.82
HVYELIIWDALDWTMQAYERNFWD [G3Y]	2.42
HVQELIIWDALDWTMQAYERNFWD [G3Q]	2.54
HVKELIIWDALDWTMQAYERNFWD [G3K]	2.06
HVVELIIWDALDWTMQAYERNFWD [G3V]	4.45
HVNELIIWDALDWTMQAYERNFWD [G3N]	1.89
HVDELIIWDALDWTMQAYERNFWD [G3D]	2.35
HVRELIIWDALDWTMQAYERNFWD [G3R]	1.87
HVLELIIWDALDWTMQAYERNFWD [G3L]	1.72
HVEELIIWDALDWTMQAYERNFWD [G3E]	1.87
HVGELIIWDALDWTSQAYERNFWD [M15S]	1.88
HVGELIIWDALDWTDQAYERNFWD [M15D]	1.76

Variant	protein stability index
HVGELIIWDALDWTTQAYERNFWD [M15T]	1.05
HVGELIIWDALDWTQQAYERNFWD [M15Q]	2.44
HVGELIIWDALDWTKQAYERNFWD [M15K]	3.06
HVGELIIWDALDWTGQAYERNFWD [M15G]	1.06
HVGNLIIWDALDWTMQAYERNFWD [E4N]	2.42
HVGGLIIWDALDWTMQAYERNFWD [E4G]	1.85
HVGKLIIWDALDWTMQAYERNFWD [E4K]	1.84
HVGFLIIWDALDWTMQAYERNFWD [E4F]	3.77
HVGHLIIWDALDWTMQAYERNFWD [E4H]	2.13
HVGMLIIWDALDWTMQAYERNFWD [E4M]	2.15
HVGYLIIWDALDWTMQAYERNFWD [E4Y]	3.22
HVGPLIIWDALDWTMQAYERNFWD [E4P]	1.81
HVGSLIIWDALDWTMQAYERNFWD [E4S]	2.34
HVGLLIIWDALDWTMQAYERNFWD [E4L]	2.92
HVGQLIIWDALDWTMQAYERNFWD [E4Q]	2.46
HVGVLIIWDALDWTMQAYERNFWD [E4V]	3.53
HVGDLIIWDALDWTMQAYERNFWD [E4D]	1.86
HVGALIIWDALDWTMQAYERNFWD [E4A]	2.85
HVGELISWDALDWTMQAYERNFWD [I7S]	2.33
HVGELIHWDALDWTMQAYERNFWD [I7H]	2.17
HVGELIGWDALDWTMQAYERNFWD [I7G]	1.8
HVGELIKWDALDWTMQAYERNFWD [I7K]	1.96
HVGELINWDALDWTMQAYERNFWD [I7N]	2.19
HVGELIEWDALDWTMQAYERNFWD [I7E]	2.41

Variant	protein stability index
HVGELIRWDALDWTMQAYERNFWD [I7R]	1.99
HVGELILWDALDWTMQAYERNFWD [I7L]	1.93
HVGELICWDALDWTMQAYERNFWD [I7C]	1.26
HVGELIPWDALDWTMQAYERNFWD [I7P]	2.87
HVGELITWDALDWTMQAYERNFWD [I7T]	1.41
HVGELIWWDALDWTMQAYERNFWD [I7W]	2.44
HVGELIQWDALDWTMQAYERNFWD [I7Q]	2.11
HVGELIVWDALDWTMQAYERNFWD [I7V]	1.59
HVGELIMWDALDWTMQAYERNFWD [I7M]	1.52
HVGELIYWDALDWTMQAYERNFWD [I7Y]	2.71
HVGELIDWDALDWTMQAYERNFWD [I7D]	2.07
HVGELIAWDALDWTMQAYERNFWD [I7A]	1.87
HVGELIIWDALDWDMQAYERNFWD [T14D]	1.68
HVGELIIWDALDWSMQAYERNFWD [T14S]	1.24
HVGELIIWDALDWYMQAYERNFWD [T14Y]	4.99
HVGELIIWDALDWVMQAYERNFWD [T14V]	2.54
HVGELIIWDALDWKMQAYERNFWD [T14K]	2.31
HVGELIIWDALDWGMQAYERNFWD [T14G]	2.08
HVGELIIWDALDWQMQAYERNFWD [T14Q]	1.38
HVGELIIWDALDWPMQAYERNFWD [T14P]	2.28
HVGELIIWDALDWNMQAYERNFWD [T14N]	1.42
HVGELIIQDALDWTMQAYERNFWD [W8Q]	1.98
HVGELIIIDALDWTMQAYERNFWD [W8I]	2.39
HVGELIICDALDWTMQAYERNFWD [W8C]	1.88

Variant	protein stability index
HVGELIIEDALDWTMQAYERNFWD [W8E]	2.13
HVGELIIVDALDWTMQAYERNFWD [W8V]	2.29
HVGELIIYDALDWTMQAYERNFWD [W8Y]	1.42
HVGELIINDALDWTMQAYERNFWD [W8N]	1.3
HVGELIIGDALDWTMQAYERNFWD [W8G]	2.89
HVGELIIPDALDWTMQAYERNFWD [W8P]	2.16
HVGELIIMDALDWTMQAYERNFWD [W8M]	2.85
HVGELIIKDALDWTMQAYERNFWD [W8K]	1.67
HVGELIIADALDWTMQAYERNFWD [W8A]	2.8
HVGELIISDALDWTMQAYERNFWD [W8S]	1.51
HVGELIIRDALDWTMQAYERNFWD [W8R]	2.78
HVGELIITDALDWTMQAYERNFWD [W8T]	1.28
HVGELIIDDALDWTMQAYERNFWD [W8D]	2.74
HVGELIIHDALDWTMQAYERNFWD [W8H]	1.61
HVGELIILDALDWTMQAYERNFWD [W8L]	3.77
HVGELIIWDATDWTMQAYERNFWD [L11T]	1.46
HVGELIIWDACDWTMQAYERNFWD [L11C]	2.2
HVGELIIWDARDWTMQAYERNFWD [L11R]	2.83
HVGELIIWDAKDWTMQAYERNFWD [L11K]	2.67
HVGELIIWDAHDWTMQAYERNFWD [L11H]	2.06
HVGELIIWDAIDWTMQAYERNFWD [L11I]	3.82
HVGELIIWDAPDWTMQAYERNFWD [L11P]	2.03
HVGELIIWDAYDWTMQAYERNFWD [L11Y]	2.08
HVGELIIWDAVDWTMQAYERNFWD [L11V]	3.1

Variant	protein stability index
HVGELIIWDANDWTMQAYERNFWD [L11N]	2.23
HVGELIIWDAQDWTMQAYERNFWD [L11Q]	2.86
HVGELIIWDADDWTMQAYERNFWD [L11D]	1.77
HVGELIIWDAADWTMQAYERNFWD [L11A]	1.61
HVGEMIIWDALDWTMQAYERNFWD [L5M]	1.97
HVGETIIWDALDWTMQAYERNFWD [L5T]	1.94
HVGESIIWDALDWTMQAYERNFWD [L5S]	1.47
HVGEFIIWDALDWTMQAYERNFWD [L5F]	3.54
HVGEQIIWDALDWTMQAYERNFWD [L5Q]	2.13
HVGEHIIWDALDWTMQAYERNFWD [L5H]	1.56
HVGEYIIWDALDWTMQAYERNFWD [L5Y]	3.11
HVGEGIIWDALDWTMQAYERNFWD [L5G]	1.92
HVGEPIIWDALDWTMQAYERNFWD [L5P]	1.99
HVGERIIWDALDWTMQAYERNFWD [L5R]	1.5
HVGEAIIWDALDWTMQAYERNFWD [L5A]	1.95
HVGEDIIWDALDWTMQAYERNFWD [L5D]	2.17
HVGENIIWDALDWTMQAYERNFWD [L5N]	1.93
HVGEKIIWDALDWTMQAYERNFWD [L5K]	2.21
HVGELIIWDALDWTMCAYERNFWD [Q16C]	2.77
HVGELIIWDALDWTMGAYERNFWD [Q16G]	1.78
